Test [1] has as its target HA-PKM2 (wild type), expressed in 293T cells (human) (UniProt P14618). The test can be described thus: SEC; cell lysates (A549, H1299 or transfected 293T; with shCIP2A, pCDH-CIP2A or Flag-CIP2A) on Superdex 200 Increase 10/300 GL, 50 mM sodium phosphate, 0.15 M NaCl, pH 7.2; fractions analysed by western blot; both exogenous and endogenous PKM2 included. On the technique in general: SEC sorts molecules by how far they enter the pores of the column.

Test [2] addresses purified recombinant WT PKM2 expressed in bacteria (human) (UniProt P14618). The experiment in a line: SEC; purified recombinant WT, S287A and S287D PKM2 expressed in bacteria; size exclusion chromatography with molecular mass standards.
The target of test [3] is pyruvate kinase M2 (PKM2), endogenous (human (endogenous in A549 and H1299)) (UniProt P14618). The test can be described thus: cross-linking; H1299 cell lysates (with Flag-CIP2A or siCIP2A) treated with 0.01% glutaraldehyde at 37 °C for 9 min, SDS-PAGE, western blot with anti-PKM2. In general terms: A western blot detects proteins with antibodies after separation by electrophoresis.

Chain of pyruvate kinase M2 (PKM2), endogenous, P14618 1-531 (enzyme; other documents disagree on this pair) (P14618 whole entry): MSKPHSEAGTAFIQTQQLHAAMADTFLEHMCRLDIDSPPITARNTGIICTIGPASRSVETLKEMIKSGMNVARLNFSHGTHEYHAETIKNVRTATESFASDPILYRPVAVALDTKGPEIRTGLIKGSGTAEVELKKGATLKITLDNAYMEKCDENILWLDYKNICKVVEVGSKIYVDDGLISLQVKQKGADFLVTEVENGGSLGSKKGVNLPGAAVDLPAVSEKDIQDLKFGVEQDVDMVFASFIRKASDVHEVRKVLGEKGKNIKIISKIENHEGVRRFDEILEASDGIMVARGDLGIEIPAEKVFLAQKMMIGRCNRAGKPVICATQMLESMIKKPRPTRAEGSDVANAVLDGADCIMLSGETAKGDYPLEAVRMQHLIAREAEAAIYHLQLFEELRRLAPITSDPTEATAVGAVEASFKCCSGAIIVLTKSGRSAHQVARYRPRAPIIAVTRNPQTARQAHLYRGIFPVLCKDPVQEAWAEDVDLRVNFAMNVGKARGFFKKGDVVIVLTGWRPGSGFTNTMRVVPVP
Chain of HA-PKM2 (wild type), expressed in 293T cells, P14618 1-531 (enzyme; other documents disagree on this pair) (P14618 whole entry): as above
Chain of purified recombinant WT PKM2 expressed in bacteria, P14618 1-531 (enzyme; other documents disagree on this pair) (P14618 whole entry): as above

The stoichiometry N is a count of units in the complex or per binding partner. In test [1], “HA-PKM2 (wild type), expressed in 293T cells, P14618 1-531 (enzyme; other documents disagree on this pair)” returned a stoichiometry N of 2.
Turning to “purified recombinant WT PKM2 expressed in bacteria, P14618 1-531 (enzyme; other documents disagree on this pair)”, the stoichiometry N in test [2] was 2.
For the substance “pyruvate kinase M2 (PKM2), endogenous, P14618 1-531 (enzyme; other documents disagree on this pair)”, the stoichiometry N in test [3] is 2.

The record behind these values is publication PMC10847417.
